Measured values from PMC10933793.
Ends that are not written are not given here.

Biological target: PL^pro domain of SARS-CoV-2 nsp3 (E746-T1063) (SARS-CoV-2)

B1: K193-branched IRF3_(189-197)-ISG15 oligopeptide 4 (peptide)
chain 1: ENPLKRLLV-NH2
chain 2: LSTVFMNLRLRGG
modifications: also: lactam at chain A 5 at chain B 13 to a chain's C-terminus
Work on B1 yielded a PL^pro-catalysed isopeptide amide bond hydrolysis by SPE-MS, time course to ~240 min (0.2 uM PL^pro, 2.0 uM peptide, 50 mM Tris pH 8.0, ambient temperature) of 20%.
